Target: esr1_human ESR1 (UniProt P03372)
Sequence (P03372 whole entry): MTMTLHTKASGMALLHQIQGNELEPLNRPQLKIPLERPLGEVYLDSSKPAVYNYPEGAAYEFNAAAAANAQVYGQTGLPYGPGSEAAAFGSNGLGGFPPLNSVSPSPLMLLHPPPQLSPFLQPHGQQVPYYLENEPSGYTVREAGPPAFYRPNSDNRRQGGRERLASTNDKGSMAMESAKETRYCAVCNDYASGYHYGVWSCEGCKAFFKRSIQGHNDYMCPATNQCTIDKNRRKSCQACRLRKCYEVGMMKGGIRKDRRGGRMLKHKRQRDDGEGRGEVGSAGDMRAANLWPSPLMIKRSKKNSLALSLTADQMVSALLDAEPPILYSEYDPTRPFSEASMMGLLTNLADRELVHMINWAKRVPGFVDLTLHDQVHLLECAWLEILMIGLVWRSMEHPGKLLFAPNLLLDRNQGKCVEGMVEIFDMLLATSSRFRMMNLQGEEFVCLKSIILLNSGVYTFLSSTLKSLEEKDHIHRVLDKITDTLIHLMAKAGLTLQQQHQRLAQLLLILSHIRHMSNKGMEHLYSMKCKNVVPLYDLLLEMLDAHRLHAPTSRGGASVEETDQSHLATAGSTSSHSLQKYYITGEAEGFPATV

effect of a mutation on the interaction: disrupting interaction
Substance: Nuclear receptor coactivator 2 (Homo sapiens), Q15596 L644A;L645A;L693A;L694A;L748A;L749A
